According to patent publication US20150079064:

How the values were obtained:
[1] = test system: TALEN TN8 (FokI ELD-S/KKR-S) (Artificial); test: cell_activity; settings: pair with TN3; maximum in one DMD myoblast line (6.8% in the other); Surveyor; site preceded by 5'T
[2] = test system: TALEN TN3 (FokI ELD-S/KKR-S) (Artificial); test: cell_activity; settings: pair with TN8; maximum in one DMD myoblast line (6.8% in the other); Surveyor; site preceded by 5'T

Sequence | activity (% alleles modified) [1] | activity (% alleles modified) [2]
CCTTAGTAACCACAGGT (double strand) [TN8 half-site] | 12.7 | –
AGCTCCTACTCAGACT (double strand) [TN3 half-site] | – | 12.7
